Numbering of substitutions follows the chain as printed.
B1: WAVE1 WCA, unlabeled, soluble (domain or fragment)
chain: STLPVISDARSVLLEAIRKGIQLRKVEEQREQEAKHERIENDVATILSRRIAVEYSDSEDDSEFDEVDWLE
B2: Alexa488-labeled WAVE1 WCA (domain or fragment)
chain: B1 chain with T2C
modifications: Alexa488-maleimide on Cys490
B3: Mouse profilin 2a (natural protein)
chain: MAGWQSYVDNLMCDGCCQEAAIVGYCDAKYVWAATAGGVFQSITPVEIDMIVGKDREGFFTNGLTLGAKKCSVIRDSLYVDGDCTMDIRTKSQGGEPTYNVAVGRAGRVLVFVMGKEGVHGGGLNKKAYSMAKYLRDSGF

What was measured:
[1] = biological target: Native, cytoplasmic actin from Acanthamoeba castellanii, monomeric (Acanthamoeba castellanii); experiment: FP
[2] = biological target: T1, WAVE1 PRD[B] (human, UniProt Q92558 277-488, C296 | C407, Texas Red maleimide (KCK variants) or Alexa 546 maleimide (C variants) on the introduced cysteine); experiment: AUC
T1 sequence (Q92558 other isoform, or with tags, fused parts or gaps, change not shown): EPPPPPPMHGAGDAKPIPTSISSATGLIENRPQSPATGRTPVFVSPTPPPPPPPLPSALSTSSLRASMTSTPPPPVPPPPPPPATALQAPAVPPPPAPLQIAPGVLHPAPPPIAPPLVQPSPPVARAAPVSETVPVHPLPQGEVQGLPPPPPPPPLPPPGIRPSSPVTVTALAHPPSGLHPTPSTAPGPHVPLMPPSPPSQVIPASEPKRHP

[3] = biological target: WAVE1 PRD[E] (human, UniProt Q92558 277-488, C296 | C407, Texas Red maleimide (KCK variants) or Alexa 546 maleimide (C variants) on the introduced cysteine); experiment: AUC
Chain of WAVE1 PRD[E] (Q92558 other isoform, or with tags, fused parts or gaps, change not shown): as above

[4] = biological target: WAVE1 PRD[A] (human, UniProt Q92558 277-488, C296 | C407, Texas Red maleimide (KCK variants) or Alexa 546 maleimide (C variants) on the introduced cysteine); experiment: AUC
Chain of WAVE1 PRD[A] (Q92558 other isoform, or with tags, fused parts or gaps, change not shown): as above

[5] = biological target: WAVE1 PRD[C] (human, UniProt Q92558 277-488, C296 | C407, Texas Red maleimide (KCK variants) or Alexa 546 maleimide (C variants) on the introduced cysteine); experiment: AUC
Chain of WAVE1 PRD[C] (Q92558 other isoform, or with tags, fused parts or gaps, change not shown): as above

[6] = biological target: WAVE1 PRD[D] (human, UniProt Q92558 277-488, C296 | C407, Texas Red maleimide (KCK variants) or Alexa 546 maleimide (C variants) on the introduced cysteine); experiment: AUC
Chain of WAVE1 PRD[D] (Q92558 other isoform, or with tags, fused parts or gaps, change not shown): as above

[7] = biological target: WAVE1 PRD [Null] (human, UniProt Q92558 277-488, C296 | C407, Texas Red maleimide (KCK variants) or Alexa 546 maleimide (C variants) on the introduced cysteine); experiment: AUC
Chain of WAVE1 PRD [Null] (Q92558 other isoform, or with tags, fused parts or gaps, change not shown): as above

[8] = biological target: WAVE1 PRD[F] (human, UniProt Q92558 277-488, C296 | C407, Texas Red maleimide (KCK variants) or Alexa 546 maleimide (C variants) on the introduced cysteine); experiment: AUC
Chain of WAVE1 PRD[F] (Q92558 other isoform, or with tags, fused parts or gaps, stated change not applied): as the sequence (Q92558 other isoform, or with tags, fused parts or gaps, change not shown) above

[9] = biological target: T1, WAVE1 PRD[B]; experiment: AUC; 2:1 binding model, Kd1 (fit)

| Binder | Kd [1] [µM] | Kd [2] [µM] | Kd [3] [µM] | Kd [4] [µM] | Kd [5] [µM] | Kd [6] [µM] | Kd [7] [µM] | Kd [8] [µM] | Kd [9] [µM] |
| --- | --- | --- | --- | --- | --- | --- | --- | --- | --- |
| B1 | 0.068 |  |  |  |  |  |  |  |  |
| B2 | 0.029 |  |  |  |  |  |  |  |  |
| B3 |  | 2 | 182 | 51 | 12 | 145 | 138 | 4 | 2.07 |
